# Ends that are not written are not given here.
# Legend:
# [1] = target: Aβ 1-42 (beta-amyloid protein 1-42), pre-formed fibrils; assay: cell-based or functional assay
# [2] = target: Aβ (beta-amyloid protein, length not stated at the place); assay: cell-based or functional assay
# [3] = target: T1, Aβ 1-40 (beta-amyloid protein 1-40); assay: solid phase binding immunoassay; ~55 kDa laminin fragment immobilized on microtiter plates, increasing concentrations of Aβ (1-40)
# T1 construct: Bought from Bachem; Residues 1-40 are counted on Aβ itself; also called Alzheimer's Aβ
Binder,"disruption of pre-formed Aβ 1-42 fibrils (Thioflavin T fluorometry), Aβ:peptide molar ratio 1:10 [1] [%]","inhibition of Aβ fibril formation, Aβ:peptide molar ratio 1:1 [2] [%]",Kd [3] [nM]
RKRLQVQLSIRT-NH2 [AG73 peptide (laminin alpha-1 chain globular domain-derived peptide)],81,50,
"~55 kDa laminin fragment obtained by elastase digestion of EHS mouse laminin (other, UniProt P19137 2690-3083, looked up, domain: C-terminal globular domains of the laminin A1 chain; also called ~55 kilodalton laminin fragment; ~55 kDa fragment of laminin) HREHGELPPEPPTLPQPELCAVDTAPGYVAGAHQFGLSQNSHLVLPLNQSDVRKRLQVQLSIRTFASSGLIYYVAHQNQMDYATLQLQEGRLHFMFDLGKGRTKVSHPALLSDGKWHTVKTEYIKRKAFMTVDGQESPSVTVVGNATTLDVERKLYLGGLPSHYRARNIGTITHSIPACIGEIMVNGQQLDKDRPLSASAVDRCYVVAQEGTFFEGSGYAALVKEGYKVRLDLNITLEFRTTSKNGVLLGISSAKVDAIGLEIVDGKVLFHVNNGAGRITATYQPRAARALCDGKWHTLQAHKSKHRIVLTVDGNSVRAESPHTHSTSADTNDPIYVGGYPAHIKQNCLSSRASFRGCVRNLRLSRGSQVQSLDLSRAFDLQGVFPHSCPGPEP",,,2

# — patent US20050153896A1 (published 2005)
